Results published in paper PMC10393062.

Columns and labels:
[1] = target: Venus-iLID-CaaX; experiment: light-induced recruitment of a cytosolic prey to a plasma membrane bait (live-cell spinning disk microscopy); HeLa cells; 1 pulse of 440 nm laser light at 20% for 1 s; change in cytosolic intensity of the prey in percent, measured 20 s after stimulation
[2] = target: Lck-mTurquoise2-iLID; experiment: as above
[3] = target: Venus-iLID-CaaX; experiment: light-induced recruitment of a cytosolic prey to a plasma membrane bait (live-cell confocal microscopy); HeLa cells, 37°C; photo-activation with 488 nm laser light (1% intensity) every 2.5 s for 2 min; normalized membrane to cytosol intensity ratio of the prey; t½ ON and OFF from a mono-exponential fit to the mean

**Q.** Which results are given for “SspB-mScarlet-I (from UniProt P0AFZ3 1-165) (natural protein)”?
**A.** mean change in cytosolic intensity (recruitment efficiency) [1]: 25.5%; median change in cytosolic intensity (recruitment efficiency) [2]: 36.7%; t½ OFF of recruitment (after 488 nm light) [3]: 20.3 s; t½ ON of recruitment (488 nm light) [3]: 5.14 s
